Article PMC2584968 (Nature, 2007)

Target: HIV-1 gp120 fragment OD1 (HIV-1)
Assay: SPR

B1: broadly neutralizing antibody b12 (antibody, V domains shown)
VH: QVQLVQSGAEVKKPGASVKVSCQASGYRFSNFVIHWVRQAPGQRFEWMGWINPYNGNKEFSAKFQDRVTFTADTSANTAYMELRSLRSADTAVYYCARVGPYSWDDSPQDNYYMDVWGKGTTVIVSS
VL: EIVLTQSPGTLSLSPGERATFSCRSSHSIRSRRVAWYQHKPGQAPRLVIHGVSNRASGISDRFSGSGSGTDFTLTITRVEPEDFALYYCQVYGASSYTFGQGTKLERK
fold faster dissociation rate than on HXBc2 core gp120: ~15 fold
